From US20040048243A1, “Methods and compositions for in vitro targeting” (priority 2003, published 2004) come the findings set out here.

The chains are these.
B1: phage displaying CRWSSMIWC (peptide)
peptide: CRWSSMIWC
modifications: not fully specified (bridges); cysteine pairing not given here; also: displayed on phage
B2: phage displaying CWSLEFTKC (peptide)
peptide: CWSLEFTKC
modifications: not fully specified (bridges); cysteine pairing not given here; also: displayed on phage
B3: phage displaying CYGAWRVSC (peptide)
peptide: CYGAWRVSC
modifications: not fully specified (bridges); cysteine pairing not given here; also: displayed on phage
B4: phage displaying CWSLEVAKC (peptide)
peptide: CWSLEVAKC
modifications: not fully specified (bridges); cysteine pairing not given here; also: displayed on phage
B5: phage displaying CWSAEWTKC (peptide)
peptide: CWSAEWTKC
modifications: not fully specified (bridges); cysteine pairing not given here; also: displayed on phage
B6: phage displaying CWSLELLKC (peptide)
peptide: CWSLELLKC
modifications: not fully specified (bridges); cysteine pairing not given here; also: displayed on phage
B7: phage displaying CWSLELSKC (peptide)
peptide: CWSLELSKC
modifications: not fully specified (bridges); cysteine pairing not given here; also: displayed on phage

No end group written: not given here.

T2 sequence (P00747 79-466 limits assumed): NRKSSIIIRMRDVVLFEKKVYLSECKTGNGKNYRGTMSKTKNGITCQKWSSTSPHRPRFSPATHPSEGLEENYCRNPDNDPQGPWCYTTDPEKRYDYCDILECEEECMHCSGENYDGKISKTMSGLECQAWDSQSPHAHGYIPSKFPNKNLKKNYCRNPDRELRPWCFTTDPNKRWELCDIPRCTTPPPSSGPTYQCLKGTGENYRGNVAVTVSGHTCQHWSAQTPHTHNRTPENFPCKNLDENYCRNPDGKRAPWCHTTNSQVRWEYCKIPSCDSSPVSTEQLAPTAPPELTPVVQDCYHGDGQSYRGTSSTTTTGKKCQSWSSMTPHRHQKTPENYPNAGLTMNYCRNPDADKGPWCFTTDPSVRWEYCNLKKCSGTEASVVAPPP

The target in the first assay is T1, rhAngiostatin (human, UniProt P00747 98-357, limits assumed). The assay can be described thus: phage binding to coated wells; colonies from rhAngiostatin wells divided by those from BSA wells.
T1 sequence (P00747 98-357 limits assumed): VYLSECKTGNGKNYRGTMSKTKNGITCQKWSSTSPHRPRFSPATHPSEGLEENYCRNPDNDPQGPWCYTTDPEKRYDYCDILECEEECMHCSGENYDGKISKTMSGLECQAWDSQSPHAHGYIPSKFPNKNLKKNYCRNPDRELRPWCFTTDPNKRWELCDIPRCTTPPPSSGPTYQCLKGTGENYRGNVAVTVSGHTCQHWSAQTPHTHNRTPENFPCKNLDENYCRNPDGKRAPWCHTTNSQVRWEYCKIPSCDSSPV
Settings: not given
How it is done: (§1) A phage library displaying random cyclic peptides with the structure CX₇C (C, cysteine; X, any residue) was prepared. An aliquot of the library containing 3×10¹⁰ transducing units (TU) was screened with rhAngiostatin protein coated on microtiter wells as described (Koivunen et al 1993). In the first and second panning the amount of protein used was 10 μg/well. To increase the stringency of panning, the wells were coated with a decreased concentration of rhAngiostatin protein (100 ng/well) in the third panning. Phage remained bound after extensive washing. Bound phage were recovered by infection into F-pilus positive K91 bacteria. To determine the specificity of rhAngiostatin binding, selected phage were assayed as described but using rh-Endostatin and BSA proteins to coat the wells. In all assays, insertless phage (fdtet) was used as a control.
(§2) Phage were sequenced from randomly selected clones after three rounds of panning (Koivunen et al., 1994, 1995; Pasqualini et al., 1995). A number of distinct angiostatin-targeting sequences were identified (Table 10). Randomly selected clones from rounds II and III were sequenced. Amino acid sequences of the phagemid encoded peptides were deduced from nucleotide sequences. A consensus sequence appeared on the third round in 61% of the sequences examined (26 out of 42)—CWSLEXXKC (SEQ D NO: 141). Including the closely related sequence […] (SEQ ID NO: 142) the consensus motif accounted for 71% of Angiostatin binding peptides. The ratios in the last two columns of Table 10 were calculated by dividing the number of colonies recovered from rhAngiostatin-coated wells by those recovered from rh-Endostatin or BSA wells.
In the case of B1, the “rh-Angio/BSA (ratio of colonies recovered)” value stood at 11 ratio.

Turning to B2, the “rh-Angio/BSA (ratio of colonies recovered)” value is 958 ratio.

For the molecule B3, the “rh-Angio/BSA (ratio of colonies recovered)” value amounted to 14 ratio.

Take B4: the “rh-Angio/BSA (ratio of colonies recovered)” value was 1120 ratio.

Regarding B5, the “rh-Angio/BSA (ratio of colonies recovered)” value came to 892 ratio.

As to B6, the “rh-Angio/BSA (ratio of colonies recovered)” value worked out at 734 ratio.

As for B7, the “rh-Angio/BSA (ratio of colonies recovered)” value was 630 ratio.

Another assay has as its target T1, rhAngiostatin. Nature of the assay: phage binding to coated wells; colonies from rhAngiostatin wells divided by those from rh-Endostatin wells.
Settings: not given
How it is done: as §1, §2
Take B1: the “rh-Angio/rhEndo (ratio of colonies recovered)” value turned out to be 7 ratio.

On to B2, for which the “rh-Angio/rhEndo (ratio of colonies recovered)” value was 958 ratio.

Turning to B3, the “rh-Angio/rhEndo (ratio of colonies recovered)” value amounted to 6 ratio.

In the case of B4, the “rh-Angio/rhEndo (ratio of colonies recovered)” value turned out to be 486 ratio.

As for B5, the “rh-Angio/rhEndo (ratio of colonies recovered)” value is 124 ratio.

As to B6, the “rh-Angio/rhEndo (ratio of colonies recovered)” value came out at 489 ratio.

In the case of B7, the “rh-Angio/rhEndo (ratio of colonies recovered)” value worked out at 630 ratio.

A further assay addresses T2, rhAngiostatin (Homo sapiens, UniProt P00747).
T2 construct: rh-Angiostatin and rh-Endostatin were produced by EntreMed, Inc; purchased EntreMed, Inc. (Rockville, Md.)
Nature of the assay: Panning of CX7C phage library on rhAngiostatin (clone frequency). In kind it is binding. As to conditions: clones sequenced after panning on rhAngiostatin. How it is done: as §1, with “CX7C” for “CX₇C”, “3×10^10” for “3×10¹⁰”
Phage were sequenced from randomly selected clones after three rounds of panning (Koivunen et al., 1994, 1995; Pasqualini et al., 1995). A number of distinct angiostatin-targeting sequences were identified (Table 10). Randomly selected clones from rounds II and III were sequenced. Amino acid sequences of the phagemid encoded peptides were deduced from nucleotide sequences. A consensus sequence appeared on the third round in 61% of the sequences examined (26 out of 42)—CWSLEXXKC (SEQ D NO: 141). Including the closely related sequence CWSAEWTKC (SEQ ID NO: 142) the consensus motif accounted for 71% of Angiostatin binding peptides. The ratios in the last two columns of Table 10 were calculated by dividing the number of colonies recovered from rhAngiostatin-coated wells by those recovered from rh-Endostatin or BSA wells.
Turning to CGGREFWLC, the frequency is 1/42.

On to CGVVSRVGC, for which the frequency is 1/42.

Consider CLAWVGGRC, for which the frequency is 1/42.

Take CQGKFSQRC: the frequency is recorded as 1/42.

Turning to CRVLADRDC, the frequency is 1/42.

With CRWSSMIWC, the frequency is recorded as 1/42.

With CSLQGIVGC, the frequency is recorded as 1/42.

Turning to CSRSVSRLC, the frequency is reported as 1/42.

As to CVAADRYVC, the frequency is on record as 1/42.

Turning to CWSAEWTKC, the frequency is 4/42.

Take CWSLEFTKC: the frequency is on record as 5/42.

In the case of CWSLELLKC, the frequency is on record as 2/42.

Turning to CWSLELSKC, the frequency is given as 10/42.

Regarding CWSLESLKC, the frequency was 4/42.

On to CWSLEVAKC, for which the frequency is on record as 5/42.

On to CYGAWRVSC, for which the frequency is recorded as 1/42.
